In experiment [1] the target is T1, RAGE Fc chimera (Homo sapiens, UniProt Q15109). Briefly: ELISA: Aβ1–42 binding to RAGE after pre-incubation of Aβ1–42 with neutrophil proteins. The arrangement: purchased R&D Systems Inc. (RAGE Fc chimera); Bachem (Aβ1–42). As to the method:
(§1) The plates were washed three times with PBS containing 0.05% tween (PBST), and then blocked in PBST containing 3% bovine serum albumin (BSA). Indicated proteins were added to the plate in 50 μL PBST containing 0.1% BSA and incubated at 37°C for 70 mins. Wells were washed four times with PBST, and then incubated with 50 μL of goat anti-RAGE primary antibody (0.5 μg/ml) or mouse anti-APP/Aβ antibody (0.5 μg/ml-1 μg/ml) for 1 h. After washing the wells four times with PBST, 50 μL of rabbit anti-goat at 0.16 μg/ml or donkey anti-mouse at 0.04–0.08 μg/ml secondary antibodies were added for 1 h at room temperature.
In this set of experiments, the maxisorp plates were coated with RAGE Fc chimera (0.5 μg/well, 83.3 nM) overnight at 4°C.
(§2) All statistics were performed using Graph Pad Prism 6 (GraphPad Software, La Jolla, CA). Data are represented as mean± SEM of results. […] Two-way analysis of variances (ANOVAs) were performed with Dunnett’s multiple comparison tests. […] Kruskal-Wallis tests with Dunn’s multiple comparison tests were used to analyze binding by Far-Western dot blotting (see figure legends 3 and 6 for details on multiple comparison tests). […] To obtain dissociation constants (Kd), half-maximal inhibitory concentrations (IC50), and maximum absorbance values, BSA was subtracted as background and values were fitted to a curve of nonlinear regression.

Experiment [2] addresses T1, RAGE Fc chimera. Briefly: Far-Western dot blot: binding of RAGE to spotted proteins ± GM-0111. The arrangement: purchased R&D Systems Inc. (Minneapolis, MN). The note with it: 1 μg spotted protein (0.5 μg Aβ1–42). The procedure:
as §2

Experiment [3] addresses T2, Aβ1–42 (Homo sapiens, UniProt P05067).
T2 construct: Amyloid beta 1–42 (Aβ1–42), a known RAGE ligand; purchased Bachem (Torrance, CA)
Briefly: ELISA: binding of Aβ1–42 to coated neutrophil proteins. The note with it: for Log binding (Aβ1–42): 0.5 μg/well coated protein, with protease inhibitor cocktail, log OD 492 nm, mean ± SEM, n = 3; for maximum absorbance value for Aβ1–42 binding: ELISA with protease inhibitors, BSA subtracted, nonlinear regression fit. As to the method: as §1, §2
(In general: ELISA stands for enzyme-linked immunosorbent assay.)

Experiment [4] deals with T1, RAGE Fc chimera. Briefly: ELISA: binding of RAGE to coated neutrophil proteins. Also noted: purchased R&D Systems Inc. (Minneapolis, MN). The following applies: for maximum absorbance value for RAGE binding: ELISA, BSA subtracted as background, nonlinear regression fit; for Log binding (RAGE): wells coated 0.5 μg/well protein, log-transformed OD 492 nm, mean ± SEM. As to the method: as §1
Goat anti-RAGE primary antibody at 0.5 μg/ml was used to detect bound RAGE.
as §2

For experiment [5], the target named is T2, Aβ1–42. Briefly: Far-Western dot blot: binding of Aβ1–42 to spotted neutrophil proteins. The following applies: Aβ1–42 […] (56 nM) with protease inhibitor cocktail; 1 μg spotted protein. As to the method: After spotting, membranes were rinsed with ultrapure water, and Ponceau S (Sigma Aldrich) was used to stain for spotted proteins. Ponceau S was rinsed off with ultrapure water, and membrane blots were blocked for 2 h at room temperature in PBST containing 3% BSA. […] Blots were washed three times with PBST for 10 min, and then incubated with either rabbit anti-RAGE primary antibody (0.8μg/ml) or mouse anti-APP/Aβ (0.25μg/ml) for 2 h at room temperature. Blots were washed three times with PBST for 10 min, and then incubated with donkey anti-rabbit or donkey anti-mouse secondary antibodies at 0.04μg/ml for 45 min at room temperature. Blots were washed three times with PBST. Enhanced chemiluminescent or SuperSignal West femto maximum sensitivity substrates (Pierce) were used to develop blots. Mean dot densities were quantified and normalized to ponceau S dot densities using Image J software (National Institutes of Health (NIH), Bethesda, MD).
Blots were incubated with rocking overnight at 4°C.
as §2

Experiment [6] deals with T3, Aβ1–42 binding to RAGE (Homo sapiens, UniProt Q15109).
T3 construct: purchased R&D Systems Inc. (RAGE Fc chimera); Bachem (Aβ1–42)
Briefly: ELISA: competitive inhibition of Aβ1–42 binding to RAGE by neutrophil proteins added simultaneously. As to the method:
as §1, §2

The source of these data is article PMC5038948, “The Role of Neutrophil Proteins on the Amyloid Beta-RAGE Axis” (PLoS ONE, 2016).

T1 sequence (Q15109 with tags, fused parts or gaps limits assumed): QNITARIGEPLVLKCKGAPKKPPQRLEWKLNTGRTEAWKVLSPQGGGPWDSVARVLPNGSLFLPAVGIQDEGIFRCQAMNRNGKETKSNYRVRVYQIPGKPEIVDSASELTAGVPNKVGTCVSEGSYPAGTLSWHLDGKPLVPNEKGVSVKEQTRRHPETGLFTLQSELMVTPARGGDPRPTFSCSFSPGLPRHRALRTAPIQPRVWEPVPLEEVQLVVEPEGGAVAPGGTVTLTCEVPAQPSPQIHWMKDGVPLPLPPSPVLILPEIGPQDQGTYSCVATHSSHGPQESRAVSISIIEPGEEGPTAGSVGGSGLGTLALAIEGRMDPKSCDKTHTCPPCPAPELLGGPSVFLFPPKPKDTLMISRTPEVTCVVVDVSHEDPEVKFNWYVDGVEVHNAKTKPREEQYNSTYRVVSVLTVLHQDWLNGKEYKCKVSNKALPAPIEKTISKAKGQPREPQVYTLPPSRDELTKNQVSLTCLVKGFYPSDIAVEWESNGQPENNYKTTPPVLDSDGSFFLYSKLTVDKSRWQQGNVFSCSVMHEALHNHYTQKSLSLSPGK
T3 sequence (Q15109 with tags, fused parts or gaps limits assumed): as above

As a reminder, the Kd is the equilibrium constant for the complex coming apart. For orientation: IC50 means the midpoint of a concentration-inhibition curve. For the substance neutrophil elastase, in experiment [1] (Aβ1–42 pre-incubated with neutrophil elastase 2 μg/ml), the “maximum absorbance value for Aβ1–42 binding to RAGE” value was found to be 0.15 OD 492 nm. Further, the equilibrium dissociation constant (Kd) in experiment [1] (read-out: KD value for Aβ1–42 binding to RAGE, Aβ1–42 pre-incubated overnight 4°C with neutrophil elastase 2 μg/ml (80 nM)) came out at 131 nM. The “binding of RAGE (far-Western dot blot)” value in experiment [2] is “did not detect visible binding”. Further, the “Log binding (Aβ1–42)” value was -1.061 in experiment [3] (Aβ1–42 0 nM (background)); -0.961 in experiment [3] (Aβ1–42 3.47 nM); “• -0.720±0.151 • p = 0.0064” in experiment [3] (Aβ1–42 13.89 nM); “• -0.414±0.154 • p<0.0001” in experiment [3] (Aβ1–42 27.78 nM); “• -0.146±0.153 • p<0.0001” in experiment [3] (Aβ1–42 55.56 nM); “• -0.890±0.127 • p = 0.0064” in experiment [3] (Aβ1–42 […]). The “maximum absorbance value for Aβ1–42 binding” value in experiment [3] was 5.89. Moreover, the “maximum absorbance value for RAGE binding” value in experiment [4] came to 1.11. In addition, the “Log binding (RAGE)” value in experiment [4] (RAGE 0 nM (background)) is -0.756; in experiment [4] (RAGE 0.83 nM), -0.376; in experiment [4] (RAGE 1.67 nM), “• -0.274±0.113 • p = 0.046”; in experiment [4] (RAGE 3.33 nM), “• -0.121±0.104 • p = 0.003”. Also, the “binding of Aβ1–42 (far-Western dot blot)” value in experiment [5] is recorded as “low binding”. In experiment [6] (read-out: IC50 for inhibition of Aβ1–42 binding to RAGE, Aβ1–42 11 nM added simultaneously with the protein to RAGE-coated wells, absence of protease inhibitors), the IC50 was found to be 4.85 nM. Besides, the “inhibition of Aβ1–42 binding to RAGE in the presence of protease inhibitors” value in experiment [6] (with protease inhibitor cocktail, Aβ1–42 11 nM) is on record as “No inhibition”.

For “bovine serum albumin [BSA, reference compound]”, in experiment [2], the “binding of RAGE (far-Western dot blot)” value was “did not detect visible binding”. In addition, the “binding of Aβ1–42 (far-Western dot blot)” value in experiment [5] was “No binding”.

For cathepsin G, the “binding of RAGE (far-Western dot blot)” value in experiment [2] is on record as “not significantly higher than RAGE binding to BSA”. The “Log binding (Aβ1–42)” value in experiment [3] (Aβ1–42 0 nM (background)) is recorded as “• -0.884±0.103 • p = 0.0004”; in experiment [3] (Aβ1–42 3.47 nM) it was “• -0.368±0.157 • p<0.0001”; in experiment [3] (Aβ1–42 13.89 nM) it was “• 0.019±0.165 • p<0.0001”; in experiment [3] (Aβ1–42 27.78 nM), “• 0.151±0.149 • p<0.0001”; in experiment [3] (Aβ1–42 55.56 nM), “• 0.310±0.125 • p<0.0001”. Besides, the “maximum absorbance value for Aβ1–42 binding” value in experiment [3] is on record as 3.54. For the same substance, in experiment [4], the “maximum absorbance value for RAGE binding” value is reported as 2.14. Also, the “Log binding (RAGE)” value is recorded as -0.426 in experiment [4] (RAGE 0 nM (background)), “• 0.101±0.084 • p<0.0001” in experiment [4] (RAGE 0.83 nM), “• 0.166±0.092 • p<0.0001” in experiment [4] (RAGE 1.67 nM) and “• 0.192±0.096 • p<0.0001” in experiment [4] (RAGE 3.33 nM). For the same substance, the “binding of Aβ1–42 (far-Western dot blot)” value in experiment [5] is recorded as “strong binding”.
